# In patent publication US20240116985A1, “STAPLED PEPTIDES AND METHODS THEREOF” (priority 2020, published 2024):
# Starred links: 1 amine or outer side, 2 acyl side, 3 side chain; linkers in the order of their positions; H or OH if unused. Positions of bridges follow the written chain, without caps; N, C: chain ends. Non-standard residues stand in square brackets, D forms with d. Primed or numbered codes have the meaning given here. *: point of attachment. B5(4) = 2,2-bis(4-pentenyl)glycine = 2-amino-2-(pent-4-en-1-yl)hept-6-enoic acid (stitching residue), C=CCCCC(CCCC=C)(N[*:1])C(=O)[*:2]; B5(20) = 2-amino-2-(pent-4-en-1-yl)hept-6-enoic acid = bis(4-pentenyl)glycine, stitching residue, C=CCCCC(CCCC=C)(N[*:1])C(=O)[*:2]; Ala(1H-tetrazol-5-yl) = N[C@@H](Cc1nnn[nH]1)C(=O)O; Ala(4-thiazolyl) = N[C@@H](Cc1cscn1)C(=O)O; Abu(4,4,4-F3) = N[C@@H](CC(F)(F)F)C(=O)O; Ala(2-furyl) = N[C@@H](Cc1ccco1)C(=O)O; Phe(3-Me) = Cc1cccc(C[C@H](N)C(=O)O)c1; Bta = N[C@@H](Cc1csc2ccccc12)C(=O)O; αAllylPro = C=CC[C@@]1(C(=O)O)CCCN1; 3Thi = N[C@@H](Cc1ccsc1)C(=O)O; S8 = C=CCCCCCC[C@](C)(N)C(=O)O; Dab = NCC[C@H](N)C(=O)O; Nva = CCC[C@H](N)C(=O)O; Abu = CC[C@H](N)C(=O)O; Dap = NC[C@H](N)C(=O)O; Ms = CS(=O)(=O)*
# Molecular target: full-length beta-Catenin (Uniprot ID P35222) (Homo sapiens (Human)) (UniProt P35222)
# Test: fluorescence polarization competition: full-length beta-catenin + 5FAM-TCF4(10-53) probe, peptide titrated
# Chain of full-length beta-Catenin (Uniprot ID P35222) (Homo sapiens (Human)) (P35222 whole entry): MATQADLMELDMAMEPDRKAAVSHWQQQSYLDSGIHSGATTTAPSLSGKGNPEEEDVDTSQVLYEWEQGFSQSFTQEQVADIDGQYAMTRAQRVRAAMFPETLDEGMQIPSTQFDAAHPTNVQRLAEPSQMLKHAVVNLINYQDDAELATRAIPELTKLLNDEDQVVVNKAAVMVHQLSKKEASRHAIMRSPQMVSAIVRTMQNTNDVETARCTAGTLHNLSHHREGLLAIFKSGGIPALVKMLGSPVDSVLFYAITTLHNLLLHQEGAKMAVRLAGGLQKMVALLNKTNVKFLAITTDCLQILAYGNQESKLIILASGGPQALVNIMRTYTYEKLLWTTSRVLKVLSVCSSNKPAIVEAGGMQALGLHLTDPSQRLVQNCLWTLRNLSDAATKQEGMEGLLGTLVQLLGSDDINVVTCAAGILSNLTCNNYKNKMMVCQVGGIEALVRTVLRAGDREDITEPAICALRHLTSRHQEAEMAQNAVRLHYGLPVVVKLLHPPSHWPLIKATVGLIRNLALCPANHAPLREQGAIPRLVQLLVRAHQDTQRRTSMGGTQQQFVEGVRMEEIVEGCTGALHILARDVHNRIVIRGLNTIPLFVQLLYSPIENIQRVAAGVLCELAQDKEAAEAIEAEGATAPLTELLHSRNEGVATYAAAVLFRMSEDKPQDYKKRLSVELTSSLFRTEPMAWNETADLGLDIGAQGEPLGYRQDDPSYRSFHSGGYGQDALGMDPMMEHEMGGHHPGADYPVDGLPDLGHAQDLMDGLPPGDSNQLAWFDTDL
row,EC50 [nM],Binder
1,80,"Ac-[αAllylPro]DA[B5(4)]D[Ala(1H-tetrazol-5-yl)]AAFN[S8]F[Bta]Q-NH2 (staple 1-4, 4-11) [I-444]"
2,196,"Ac-[αAllylPro]DA[B5(4)]DEAA[Ala(2-furyl)]N[S8]F[Bta]Q-NH2 (staple 1-4, 4-11) [I-460]"
3,4960,"Ac-[αAllylPro]DA[B5(4)][Ala(1H-tetrazol-5-yl)]DAAFN[S8]F[Bta]Q-NH2 (staple 1-4, 4-11) [I-445]"
4,92,"Ac-[αAllylPro]DA[B5(4)]DEAA[3Thi]N[S8]F[Bta]Q-NH2 (staple 1-4, 4-11) [I-448]"
5,102,"Ac-[αAllylPro]DA[B5(4)]DEAA[Phe(3-Me)]N[S8]F[Bta]Q-NH2 (staple 1-4, 4-11) [I-458]"

# Molecular target: full-length beta-Catenin (Uniprot ID P35222) (Homo sapiens (Human)) (UniProt P35222)
# Test: fluorescence polarization competition; full-length beta-catenin, competitor 5FAM-TCF4(10-53) probe
row,IC50 [nM],Binder
1,80,"Ac-[αAllylPro]DA[B5(4)]D[Ala(1H-tetrazol-5-yl)]AAFN[S8]F[Bta]Q-NH2 (staple 1-4, 4-11) [I-444]"
2,196,"Ac-[αAllylPro]DA[B5(4)]DEAA[Ala(2-furyl)]N[S8]F[Bta]Q-NH2 (staple 1-4, 4-11) [I-460]"
3,4960,"Ac-[αAllylPro]DA[B5(4)][Ala(1H-tetrazol-5-yl)]DAAFN[S8]F[Bta]Q-NH2 (staple 1-4, 4-11) [I-445]"
4,92,"Ac-[αAllylPro]DA[B5(4)]DEAA[3Thi]N[S8]F[Bta]Q-NH2 (staple 1-4, 4-11) [I-448]"
5,102,"Ac-[αAllylPro]DA[B5(4)]DEAA[Phe(3-Me)]N[S8]F[Bta]Q-NH2 (staple 1-4, 4-11) [I-458]"

# Molecular target: full-length beta-Catenin (Uniprot ID P35222) (Homo sapiens (Human)) (UniProt P35222)
# Test: FP competition: full-length beta-catenin 10 nM + 5FAM-TCF4(10-53) 10 nM
row,IC50 [nM],Binder
1,33,"Ac-[αAllylPro]DA[B5(20)]DEAAFN[S8][3Thi][Bta]Q-NH2 (staple 1-4, 4-11; also: later-eluting HPLC peak of staple isomers) [I-519]"
2,5000,"Ac-[αAllylPro]DA[B5(4)][Dap](Ms)EAAFN[S8]F[Bta]Q-NH2 (staple 1-4, 4-11) [I-530]"
3,65,"Ac-[αAllylPro]D[Abu(4,4,4-F3)][B5(4)]DEAAFQ[S8]F[Bta]H-NH2 (staple 1-4, 4-11) [I-504]"
4,15,"Ac-[αAllylPro]DI[B5(4)]DEAAFN[S8][3Thi][Bta]H-NH2 (staple 1-4, 4-11) [I-517]"
5,44,"Ac-[αAllylPro]D[Nva][B5(4)]DEAAFQ[S8]F[Bta]Q-NH2 (staple 1-4, 4-11; also: later eluting HPLC peak staple isomer) [I-523]"
6,99,"Ac-[αAllylPro]DA[B5(4)]DEAAFQ[S8]F[Bta][Abu]-NH2 (staple 1-4, 4-11) [I-509]"
7,5000,"Ac-[αAllylPro]DA[B5(4)][Dab](Ms)EAAFN[S8]F[Bta]Q-NH2 (staple 1-4, 4-11) [I-531]"
8,5000,"Ac-[αAllylPro]DA[B5(4)][Dap](Ms)EAAFN[S8]F[Bta]Q-NH2 (staple 1-4, 4-11) [I-529]"
9,2550,"Ac-[αAllylPro]DA[B5(4)]DEAA[Ala(4-thiazolyl)]N[S8]F[Bta]Q-NH2 (staple 1-4, 4-11) [I-524]"
10,23,"Ac-[αAllylPro]DA[B5(20)]DEAAFN[S8][3Thi][Bta]H-NH2 (staple 1-4, 4-11; also: later-eluting HPLC peak of staple isomers) [I-516]"
11,23,"Ac-[αAllylPro]DI[B5(20)]DEAAFN[S8][3Thi][Bta]Q-NH2 (staple 1-4, 4-11; also: later-eluting HPLC peak of staple isomers) [I-521]"
12,5000,"Ac-[αAllylPro]DA[B5(4)][Dab](Ms)EAAFN[S8]F[Bta]Q-NH2 (staple 1-4, 4-11) [I-532]"

# Molecular target: full-length beta-Catenin (Uniprot ID P35222) (Homo sapiens (Human)) (UniProt P35222)
# Test: fluorescence polarization competition; 10 nM full-length beta-catenin + 10 nM 5FAM-TCF4(10-53) probe
row,EC50 [nM],Binder
1,5000,"Ac-[αAllylPro]DA[B5(4)][Dap](Ms)EAAFN[S8]F[Bta]Q-NH2 (staple 1-4, 4-11) [I-530]"
2,65,"Ac-[αAllylPro]D[Abu(4,4,4-F3)][B5(4)]DEAAFQ[S8]F[Bta]H-NH2 (staple 1-4, 4-11) [I-504]"
3,15,"Ac-[αAllylPro]DI[B5(4)]DEAAFN[S8][3Thi][Bta]H-NH2 (staple 1-4, 4-11) [I-517]"
4,99,"Ac-[αAllylPro]DA[B5(4)]DEAAFQ[S8]F[Bta][Abu]-NH2 (staple 1-4, 4-11) [I-509]"
5,5000,"Ac-[αAllylPro]DA[B5(4)][Dab](Ms)EAAFN[S8]F[Bta]Q-NH2 (staple 1-4, 4-11) [I-531]"
6,5000,"Ac-[αAllylPro]DA[B5(4)][Dap](Ms)EAAFN[S8]F[Bta]Q-NH2 (staple 1-4, 4-11) [I-529]"
7,2550,"Ac-[αAllylPro]DA[B5(4)]DEAA[Ala(4-thiazolyl)]N[S8]F[Bta]Q-NH2 (staple 1-4, 4-11) [I-524]"
8,5000,"Ac-[αAllylPro]DA[B5(4)][Dab](Ms)EAAFN[S8]F[Bta]Q-NH2 (staple 1-4, 4-11) [I-532]"
